Experiment [1] has as its target his-HCF[K919I, A933L], His-tagged myosin heavy chain fragment with coiled-coil stabilizing mutations (Mus musculus). Put plainly: SEC. In general terms: In gel filtration, larger molecules generally elute earlier.
For experiment [2] the target is unchanged. As to the kind of experiment: pull-down.
Experiment [3] deals with his-HCF, His-tagged myosin heavy chain fragment K810-E934 (Mus musculus). As to the kind of experiment: pull-down.

Here are results for two molecules from paper PMC6699511.

What is called stoichiometry N is the number of molecules, sites or subunits per partner or assembly. “his-HCF[K919I, A933L], His-tagged myosin heavy chain fragment with coiled-coil stabilizing mutations (domain or fragment)” showed a stoichiometry N in experiment [1] of 2.

B1: myosin regulatory light chain without His-tag (RLC), P97457 1-169 (natural protein)
chain: MPKCAKRRAGAEGSSNVFSMFDQTQIQEFKEAFTVIDQNRDGIIDKEDLRDTFAAMGRLNVKNEELDAMMKEASGPINFTVFLTMFGEKLKGADPEDVITGAFKVLDPEGKGTIKKQFLEELLTTQCDRFSQEEIKNMWAAFPPDVGGNVDYKNICYVITHGDAKDQE
modifications: not checked
Turning to B1, in experiment [2], the stoichiometry N (RLC per his-HCF[K919I, A933L]) turned out to be 1. Further, the stoichiometry N (RLC per his-HCF) in experiment [3] was 1.
